Assay results published in patent US20240254195A1 (35PHARMA, published 2024).

T1: BMP-9 (UniProt Q9UK05 320-429)
T1 sequence (looked up): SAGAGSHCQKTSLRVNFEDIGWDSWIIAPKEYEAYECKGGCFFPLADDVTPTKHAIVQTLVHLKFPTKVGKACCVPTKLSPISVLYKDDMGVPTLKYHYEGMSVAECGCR

T2: BMP-10 (UniProt O95393 317-424)
T2 sequence (looked up): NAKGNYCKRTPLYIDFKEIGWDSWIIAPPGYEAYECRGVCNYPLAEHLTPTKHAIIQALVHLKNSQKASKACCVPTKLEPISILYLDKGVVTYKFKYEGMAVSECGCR

T3: GDF-8 (UniProt O14793 267-375)
T3 sequence (looked up): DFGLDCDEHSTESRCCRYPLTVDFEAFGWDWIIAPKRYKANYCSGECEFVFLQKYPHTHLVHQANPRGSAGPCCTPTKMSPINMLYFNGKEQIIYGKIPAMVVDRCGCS

T4: recombinant human activin A (human, UniProt P08476 311-426)
T4 sequence (looked up): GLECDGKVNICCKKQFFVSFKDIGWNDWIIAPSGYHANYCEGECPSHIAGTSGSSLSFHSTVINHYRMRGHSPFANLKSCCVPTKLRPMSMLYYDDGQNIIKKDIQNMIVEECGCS

T5: GDF-11 (UniProt O95390 299-407)
T5 sequence (looked up): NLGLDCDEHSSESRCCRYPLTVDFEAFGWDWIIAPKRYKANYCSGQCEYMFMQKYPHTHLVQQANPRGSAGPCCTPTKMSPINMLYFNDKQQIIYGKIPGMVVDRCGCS

T6: activin B (UniProt P09529 293-407)
T6 sequence (looked up): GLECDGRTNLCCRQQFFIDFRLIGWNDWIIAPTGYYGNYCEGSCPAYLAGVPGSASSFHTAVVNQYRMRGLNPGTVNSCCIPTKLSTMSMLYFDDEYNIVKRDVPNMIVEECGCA

B1: P1375 (Fc fusion)
chain: ETRECIYYNANWELERTNQSGLERCEGEQDKRWHCYASWRNSSGTIELVKKGCWLDDFNCYDRQECVATEENPQVYFCCCEGNFCNERFTHLPEAGGPEVTYEPPPTGGGGSGGGGSGGGGSGGGGTHTCPPCPAPELLGGPSVFLFPPKPKDTLYITREPEVTCVVVDVSHEDPEVKFNWYVDGVEVHNAKTKPREEQYNSTYRVVSVLTVLHQDWLNGKEYKCKVSNKALPAPIEKTISKAKGQPREPQVYTLPPSRDELTKNQVSLTCLVKGFYPSDIAVEWESNGQPENNYKTTPPVLDSDGSFFLYSKLTVDKSRWQQGNVFSCSVMHEALHNHYTQKSLSLSPG
B2: P1372 (Fc fusion)
chain: ETRECIYYNANWELERTNQSGLERCEGEQDKRWHCYASWRNSSGTIELVKKGCWLDDFNCYDRQECVATEENPQVYFCCCEGNFCNERFTHLPEAGGPEVTYEPPPTGGGGSGGGGSGGGGTHTCPPCPAPELLGGPSVFLFPPKPKDTLYITREPEVTCVVVDVSHEDPEVKFNWYVDGVEVHNAKTKPREEQYNSTYRVVSVLTVLHQDWLNGKEYKCKVSNKALPAPIEKTISKAKGQPREPQVYTLPPSRDELTKNQVSLTCLVKGFYPSDIAVEWESNGQPENNYKTTPPVLDSDGSFFLYSKLTVDKSRWQQGNVFSCSVMHEALHNHYTQKSLSLSPG

Key:
Experiment in all cases: cell-based or functional assay
BMP-9 = biological target: T1, BMP-9
BMP-10 = biological target: T2, BMP-10
GDF-8 = biological target: T3, GDF-8
[1] = biological target: T4, recombinant human activin A
GDF-11 = biological target: T5, GDF-11
activin B = biological target: T6, activin B

Binder | BMP-9 IC50 (BMP-9) | BMP-10 IC50 (BMP-10) | GDF-8 IC50 (GDF-8) | Activin A IC50 [1] | GDF-11 IC50 (GDF-11) | Activin B IC50 (activin B)
B1 | > 1000 nM | > 100 nM | 0.33 nM | 0.53 nM | 0.39 nM | 2 nM
B2 | > 1000 nM | > 100 nM | 0.18 nM | 0.56 nM | 0.53 nM | 2 nM
